What was measured:
PEc fragment aa 13-24 = target: T1, PEc fragment aa 13-24 (human); experiment: dot blot, peptide on nitrocellulose, 2.5 µg/mL MAb
T1 construct: also called the last 12 amino acids
T1 peptide: QRRKGSTFEERK

[1] = target: T2, human Ec peptide (PEc), whole, 24 amino acids (human); experiment: dot blot, peptide on nitrocellulose, 2.5 µg/mL MAb
T2 construct: also called human PEc; whole PEc
T2 peptide: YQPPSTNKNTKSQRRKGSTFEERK

PEc fragment aa 1-12 = target: T3, PEc fragment aa 1-12 (human); experiment: dot blot on nitrocellulose
T3 peptide: YQPPSTNKNTKS

binding result (PEc fragment aa 13-24): binds
binding result [1]: binds
binding result (PEc fragment aa 1-12): no binding
B1: anti-PEc monoclonal antibody (MAb) of Example 1 (antibody, mouse IgG1, kappa, V domains shown)
VH: EVQLQQSGAELVRSGASVKLSCAASGFNLKDYYIHWVKQRPEQGLEWIGWIDPENGDTEYAPKFQGRATMTADTSSNTAYLHLSSLTSEDTAVYYCFANDVDCWGQGTTLTVSS
VL: DVVMTQPPLSLPVSLGDQASISCRSSQSLVHSNGKTYLHWYLQKPGQSPKLLIYKLSNRFSGVPDRFSGSGSGTDFTLKISRVEAEDLGVYFCFQSTHIPYTFGGGSKLEIRR
notes: Obtained from a mouse hybridoma, then expressed recombinantly in CHO cells; Called an IgG MAb; captured with anti-mouse Fc and detected with anti-mouse HRP; also called anti-PEc MAb; anti PEc MAb
